This is an account of results in the supplement of paper PMC10567573.

B1: SNX8 (parent)
chain: RMVPALPPKRMLGADREFIEARRR
B2: ANKRD40 (parent)
chain: VCCCELGVNPDQVEKIRKLPNTLL
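Note: lentivirally expressed fusions sorted by FACS into six bins by GFP to DsRed ratio, PSI derived from sequencing read proportions per bin multiplied by bin number.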

The variants in one series derive from B1. Nature of the series: protein stability index of a GFP-peptide fusion (GPS, HEK-293T) (PSI 1-6); higher = more stable. The following applies: c terminus: a fixed tail appended.
Regarding RMVPALPPKRMLGADREFIEARRV [R24V], the protein stability index is 3.31.
Same read-out and setting: to RMVPALPPKRMLGADREFIEARRQ [R24Q] belongs 3.52; to RMVPAAPPKRMLGADREFIEARRR [L6A], 4.
Still for that read-out and setting: the figure for RMVPAKPPKRMLGADREFIEARRR [L6K] is 3.73; for RMVPAEPPKRMLGADREFIEARRR [L6E] it is 4.52; for RMVPACPPKRMLGADREFIEARRR [L6C] it is 3.67.
RMVPAWPPKRMLGADREFIEARRR [L6W]: the protein stability index was 3.15.
As for RPVPALPPKRMLGADREFIEARRR [M2P], the protein stability index was determined as 4.53.
On the same count and under the same terms, the figure for RGVPALPPKRMLGADREFIEARRR [M2G] is 3.83; for RLVPALPPKRMLGADREFIEARRR [M2L] it is 2.76.
Same read-out and setting: to RMVPALPPKRMLGADREFIEKRRR [A21K] belongs 4.19; to RMVPALPPKRMLGADREFIEPRRR [A21P], 3.88; to RMVPALPPKRMLGADREFIENRRR [A21N], 4.52.
Still for that read-out and setting: the figure for RMVPALPPKRMLGADREFIEIRRR [A21I] is 3.34.

Variants of B2 are the subject of a further series. The description is as above. Conditions: c terminus: a fixed tail appended.
With VCCCELGVNPDQVEKIRKLPHTLL [N21H], the protein stability index was 1.83.
Same read-out and setting: to VCCCELGVNPDQVEKIRKLPITLL [N21I] belongs 2.15; to VCCCELGVNPDQVEKIRKLPTTLL [N21T], 2.04.
Same read-out and setting: to VCCCELGVNPDQVEKIRKLPFTLL [N21F] belongs 1.95; to VCCCELGVNPDQVEKIRKLPSTLL [N21S], 1.9.
The same measure, in the same setting: to VCCCELGVNPDQVEKIRKLPRTLL [N21R] belongs 1.34; to VCCCELGVNPDQVEKIRKLPVTLL [N21V], 1.83; to VCCCELGVNPDQVEKIRKLPYTLL [N21Y], 2.47.
In the case of VCCCELGVNPDQVEKIRKLPATLL [N21A], the protein stability index turned out to be 1.7.
On the same count and under the same terms, the figure for VCCCELGVNPDQVEKIRKLPQTLL [N21Q] is 1.74; for VCCCELGVNPDQVEKIRKLPDTLL [N21D] it is 2.43; for VCCCELGVNPDQVEKIRKLPETLL [N21E] it is 2.02.
Regarding VCCCELGVNPDQVEKIRKLPLTLL [N21L], the protein stability index came out at 1.94.
In the case of VCCCELGVNPDQVEKIRKLPPTLL [N21P], the protein stability index stood at 1.83.
On the same count and under the same terms, the figure for VCCCELGVNPDQVEKIRKLPCTLL [N21C] is 2.21; for VCCCELGVNPDQVEKIRKLPGTLL [N21G] it is 1.45.
Regarding VCCCELGVNPDQVEKIRKLPMTLL [N21M], the protein stability index turned out to be 1.84.
The same measure, in the same setting: to VCCCELGVNPDQVEKIRKLPWTLL [N21W] belongs 1.32; to VCCCELGVNPDQVEKIRKLPKTLL [N21K], 3.13; to VCCCELGVNPDQVEKIRKLPNSLL [T22S], 1.79.
Still for that read-out and setting: to VCCCELGVNPDQVEKIRKLPNLLL [T22L] belongs 2.73; to VCCCELGVNPDQVEKIRKLPNHLL [T22H], 1.8.
For VCCCELGVNPDQVEKIRKLPNCLL [T22C], the protein stability index stood at 1.72.
On the same count and under the same terms, to VCCCELGVNPDQVEKIRKLPNYLL [T22Y] belongs 1.63.
On the same count and under the same terms, the figure for VCCCELGVNPDQVEKIRKLPNELL [T22E] is 2.64.
The same measure, in the same setting: to VCCCELGVNPDQVEKIRKLPNKLL [T22K] belongs 2.1; to VCCCELGVNPDQVEKIRKLPNVLL [T22V], 1.33.
In the case of VCCCELGVNPDQVEKIRKLPNRLL [T22R], the protein stability index worked out at 2.02.
For VCCCELGVNPDQVEKIRKLPNQLL [T22Q], the protein stability index stood at 1.63.
Still for that read-out and setting: to VCCCELGVNPDQVEKIRKLPNWLL [T22W] belongs 2.01; to VCCCELGVNPDQVEKIRKLPNILL [T22I], 2.06.
Still for that read-out and setting: to VCCCELGVNPDQVEKIRKLPNDLL [T22D] belongs 2.5; to VCCCELGVNPDQVEKIRKLPNALL [T22A], 2.09; to VCCCELGVNPDQVEKIRKLPNFLL [T22F], 2.2.
On the same count and under the same terms, to VCCCELGVNPDQVEKIRKLPNGLL [T22G] belongs 1.51; to VCCCELGVNPDQVEKIRKLPNMLL [T22M], 2.1.
On to VCCCELGVNPDQVEKIRKLPNNLL [T22N], for which the protein stability index was found to be 1.71.
Same read-out and setting: the figure for VCCCELGVNPDQVEKIRKLPNPLL [T22P] is 2.21; for VCCCELGVNPDQVEKIRKLVNTLL [P20V] it is 1.82.
Still for that read-out and setting: the figure for VCCCELGVNPDQVEKIRKLTNTLL [P20T] is 2.2.
On the same count and under the same terms, to VCCCELGVNPDQVEKIRKLYNTLL [P20Y] belongs 2.23; to VCCCELGVNPDQVEKIRKLSNTLL [P20S], 1.95.
With VCCCELGVNPDQVEKIRKLPNTLQ [L24Q], the protein stability index worked out at 2.48.
With VCCCELGVNPDQVEKIRKLPNTLA [L24A], the protein stability index was determined as 1.71.
Same read-out and setting: to VCCCELGVNPDQVEKIRKLPNTLK [L24K] belongs 2.09; to VCCCELGVNPDQVEKIRKLPNTLC [L24C], 2.12.
On the same count and under the same terms, the figure for VCCCELGVNPDQVEKIRKLPNTLN [L24N] is 2.61.
Regarding VCCCELGVNPDQVEKIRKLPNTLE [L24E], the protein stability index was 2.62.
The same measure, in the same setting: the figure for VCCCELGVNPDQVEKIRKLPNTLP [L24P] is 2.12.
Same read-out and setting: the figure for VCCCELGVNPDQVEKIRKLPNTLV [L24V] is 1.96; for VCCCELGVNPDQVEKIRKLPNTLR [L24R] it is 1.38; for VCCCELGVNPDQVEKIRKLPNTLD [L24D] it is 3.15.
Same read-out and setting: to VCCCELGVNPDQVEKIRKLPNTLT [L24T] belongs 1.94; to VCCCELGVNPDQVEKIRKLPNTLH [L24H], 2.02; to VCCCELGVNPDQVEKIRKLPNTLS [L24S], 2.49.
For VCCCELGVNPDQVEKIRKLPNTLW [L24W], the protein stability index is 2.1.
Same read-out and setting: to VCCCELGVNPDQVEKIRKLPNTLM [L24M] belongs 1.8; to VCCCELGVNPDQVEKIRKLPNTLI [L24I], 1.95.
Same read-out and setting: the figure for VCCCELGVNPDQVEKIRKLPNTLF [L24F] is 2.04; for VCCCELGVNPDQVEKIRKLPNTLG [L24G] it is 2.56.
Same read-out and setting: the figure for VCCCELGVNPDQVEKIRKLPNTLY [L24Y] is 1.84; for VCCCELGVNPDQVEKIRKLPNTKL [L23K] it is 2.36.
VCCCELGVNPDQVEKIRKLPNTML [L23M]: the protein stability index was 1.89.
Still for that read-out and setting: the figure for VCCCELGVNPDQVEKIRKLPNTDL [L23D] is 2.31; for VCCCELGVNPDQVEKIRKLPNTCL [L23C] it is 1.71; for VCCCELGVNPDQVEKIRKLPNTPL [L23P] it is 2.75.
Still for that read-out and setting: to VCCCELGVNPDQVEKIRKLPNTVL [L23V] belongs 2.25; to VCCCELGVNPDQVEKIRKLPNTHL [L23H], 2.67; to VCCCELGVNPDQVEKIRKLPNTWL [L23W], 2.9.
On the same count and under the same terms, to VCCCELGVNPDQVEKIRKLPNTQL [L23Q] belongs 2.35.
On to VCCCELGVNPDQVEKIRKLPNTFL [L23F], for which the protein stability index came to 1.51.
On the same count and under the same terms, to VCCCELGVNPDQVEKIRKLPNTRL [L23R] belongs 1.66; to VCCCELGVNPDQVEKIRKLPNTTL [L23T], 2.33; to VCCCELGVNPDQVEKIRKLPNTGL [L23G], 2.51.
Same read-out and setting: the figure for VCCCELGVNPDQVEKIRKLPNTAL [L23A] is 1.98; for VCCCELGVNPDQVEKIRKLPNTIL [L23I] it is 1.6.
The same measure, in the same setting: to VCCCELGVNPDQVEKIRKLPNTEL [L23E] belongs 3.05.
VCCCELGVNPDQVEKIRKLPNTSL [L23S]: the protein stability index was found to be 2.25.
In the case of VCCCELGVNPDQVEKIRKLPNTYL [L23Y], the protein stability index was 1.45.
Same read-out and setting: the figure for VCCCELGVNPDQVEKIRKLPNTNL [L23N] is 2.05.
